Laboratory results as given in PMC4258057.

What was measured:
[1] = target: T1, SACE_7301 (Saccharopolyspora erythraea A226?) (UniProt A4FQY4); assay: EMSA; settings: 10 mM Tris pH 7.5, 5 mM MgCl2, 50 mM EDTA (so in the source), 60 mM KCl, 10 mM DTT, 10% glycerol, 150 ng probe (legend: 10 ng), 0.5-4 uM protein; on ice 10 min; 8% …
T1 sequence: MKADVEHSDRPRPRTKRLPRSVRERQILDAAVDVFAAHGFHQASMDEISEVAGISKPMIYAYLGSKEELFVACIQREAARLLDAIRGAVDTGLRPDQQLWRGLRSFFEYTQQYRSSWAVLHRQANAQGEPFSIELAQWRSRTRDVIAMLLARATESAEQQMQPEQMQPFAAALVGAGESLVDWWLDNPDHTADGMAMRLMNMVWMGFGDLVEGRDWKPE

[2] = target: T2, BldD (Saccharopolyspora erythraea A226?) (UniProt A4FBF9); assay: EMSA; settings: 10 mM Tris pH 7.5, 5 mM MgCl2, 50 mM EDTA (so in the source), 60 mM KCl, 10 mM DTT, 10% glycerol, 150 ng probe (legend: 10 ng), 0.5-4 uM protein; on ice 10 min; 8% …
T2 sequence: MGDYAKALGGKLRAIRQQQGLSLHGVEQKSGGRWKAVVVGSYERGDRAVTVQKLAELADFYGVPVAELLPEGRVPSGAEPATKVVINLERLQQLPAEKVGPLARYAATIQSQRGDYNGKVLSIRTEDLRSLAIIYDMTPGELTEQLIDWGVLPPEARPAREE

| Sequence | binding [1] | binding [2] |
| --- | --- | --- |
| GCGAGTGTCCGTTCGAGTGGCGGCTTGCGCCCGATGCTAGTCGCGGTTGATCGGCGATCGCAGGTGCACGCGGTCGATCTTGACGGCTGGCGAGAGGTGCGGGGAGGATCTGACCGACGCGGTCCACACGTGGCACCGCGATGCTGTTGTGGGCTGGACAATCGTGCCGGTTGGTAGGATCCAGCG (double strand) [PermE promoter fragment] | binds | binds |
| GCGTCCCCCTACTCGACGACCACGCAATGGGCGAACAATATAGGAAGGATCAAGAGGTTGACATCGCCTCGTCGAGCCAACGAACCTGTGAACATCTGCATGTTGACAAGATCAACGGCGGCTACCTACTGTGGTGGCCCAGTGACGGGTTGCCGCACATCGCGCTGGGGAGATTCTTTGAATTTCGCCCGTAGCACCGACCTGGAAAGCGAGCAAATGCTCCG (double strand) [PeryAI promoter fragment] | binds | binds |
